Assay results from US20200299375A1 (TILLOTTS PHARMA, published 2020).

B1: recombinant human TNFβ (ligand, UniProt P01374 35-205, looked up)
chain: LPGVGLTPSAAQTARQHPKMHLAHSTLKPAAHLIGDPSKQNSLLWRANTDRAFLQDGFSLSNNSLLVPTSGIYFVYSQVVFSGKAYSPKATSSPLYLAHEVQLFSSQYPFHVPLLSSQKMVYPGLQEPWLHSMYHGAAFQLTQGDQLSTHTDGIPHLVLSPSTVFFGAFAL
B2: 17-22-B03-sc08 (scFv)
scFv: MDIQMTQSPSSLSASVGDRVTITCQASQSISSYLAWYQQKPGKAPKLLIYKASTLASGVPSRFSGSGSGTDFTLTISSLQPEDFATYYCQCTYYEPSYVFRAFGGGTKLTVLGGGGGSGGGGSGGGGSGGGGSEVQLVESGGGLVQPGGSLRLSCKASGIDFSAGYDMCWVRQAPGKGLEWIACIDSRREESDYASWAKGRFTISKDSSKNTVYLQMNSLRAEDTAVYYCARGGYGGDGVDGAFDPWGQGTLVTVSS
notes: Humanized scFv, CDR-grafted light chain and structural-grafted heavy chain (CDR/STR); also called 17-22-B03-sc08 (CDR/STR); domain shuffled variant
B3: 17-22-B03-sc02 (scFv)
scFv: MDIQMTQSPSSLSASVGDRVTIKCQASQSISSYLAWYQQKPGKAPKLLIYKASTLASGVPSRFSGSGSGTEFTLTISDLEPADFATYYCQCTYYEPSYVFRAFGGGTKLTVLGGGGGSGGGGSGGGGSGGGGSEVQLVESGGGLVQPGGSLRLSCKASGIDFSAGYDMCWVRQAPGKGLEWIACIDSRREESDYASWAKGRFTISKDSSKNTVYLQMNSLRAEDTAVYYCARGGYGGDGVDGAFDPWGQGTLVTVSS
notes: Humanized scFv, structural graft (STR); also called 17-22-B03-sc02 (STR); structural graft
B4: 17-22-B03-sc12 (scFv)
scFv: MDIQMTQSPSSLSASVGDRVTITCQASQSISSYLAWYQQKPGKAPKLLIYKASTLASGVPSRFSGSGSGTDFTLTISSLQPEDFATYYCQSTYYEPSYVFRAFGGGTKLTVLGGGGGSGGGGSGGGGSGGGGSEVQLVESGGGLVQPGGSLRLSCKASGIDFSAGYDMCWVRQAPGKGLEWIACIDSRREESDYASWAKGRFTISKDSSKNTVYLQMNSLRAEDTAVYYCARGGYGGDGVDGAFDPWGQGTLVTVSS
notes: Humanized scFv, CDR(C90S)/STR design; also called 17-22-B03-sc12 (CDR(C90S)/STR)

Experiments:
17-22-B03-sc02 = target: B3; assay: competition ELISA, coated scFv, biotinylated TNFα (75 ng/mL), unlabeled TNFβ varied
Description: (§1) For this purpose, the scFvs were coated on a 96-well Maxisorp ELISA plate at a concentration of 1 μg/mL. […] To control precision of the response, the dose-response curves were analyzed in duplicate.

17-22-B03-sc12 = target: B4; assay: as above
Description: as §1

17-22-B03-sc08 = target: B2; assay: as above
Description: as §1

recombinant human TNFα [1] = target: T1, recombinant human TNFα (human, UniProt P01375 77-233); assay: SPR (MASS-1), TNFα immobilised by amine coupling, scFv injected 45 to 1.4 nM
T1 construct: also called tumor necrosis factor alpha; TNFαtrimer
T1 sequence (P01375 77-233 limits assumed): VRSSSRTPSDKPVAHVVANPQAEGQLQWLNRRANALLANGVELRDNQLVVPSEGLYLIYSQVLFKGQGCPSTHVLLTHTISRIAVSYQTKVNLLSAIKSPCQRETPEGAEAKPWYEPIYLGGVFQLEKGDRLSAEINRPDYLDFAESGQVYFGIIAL
Description: (§2) In a second step, for the best performing scFvs, Single Injection Cycle Kinetics (SiCK) were measured from a single injection cycle by simultaneously injecting six analyte samples at different concentrations into each of the eight parallel channels in the MASS-1 system. […] The apparent dissociation (kd) and association (kₐ) rate constants and the apparent dissociation equilibrium constant (KD) were calculated with the MASS-1 analysis software (Analyzer, Sierra Sensors) using one-to-one Langmuir binding model and quality of the fits was monitored based on Chi², which is a measure for the quality of the curve fitting. The smaller the value for the Chi² the more accurate is the fitting to the one-to-one Langmuir binding model. For affinity screenings, results were deemed valid if the Chi² was below 10 for the concentration analyzed. In cases where several scFv concentrations were analyzed, results were deemed valid if the average Chi^t over all the concentrations tested was below 10.

recombinant human TNFα [2] = target: T1, recombinant human TNFα; assay: inhibition ELISA, biotinylated human TNFα (960 pM) on coated TNFRI-Fc, scFv varied
Description: (§3) For the first inhibition ELISA, the extracellular domain of TNFRI fused to the Fc region of human IgG (R&D Systems, Cat. No. 372-RI) was coated on a 96-well Maxisorp ELISA at a concentration of 0.5 μg/mL. For the second inhibition ELISA, the extracellular domain of TNFRII fused to the Fc region of human IgG (R&D Systems, Cat. No. 726-R2) was coated at a concentration of 2 μg/mL. All subsequent steps were identical for both assays.

recombinant human TNFα [3] = target: T1, recombinant human TNFα; assay: inhibition ELISA, biotinylated human TNFα (960 pM) on coated TNFRII-Fc, scFv varied
Description: as §3

Rhesus monkey TNFα [4] = target: T2, Rhesus monkey TNFα (Rhesus monkey (Macaca mulatta), UniProt P48094 77-233); assay: cell-based or functional assay
T2 sequence (P48094 77-233 limits assumed): as the sequence (P01375 77-233 limits assumed) above, with R44T, T72N, R138L counted along it

[5] = target: T3, recombinant Cynomolgus monkey TNFα (Cynomolgus monkey (Macaca fascicularis), UniProt P79337 77-233); assay: cell-based or functional assay
T3 sequence (P79337 77-233 limits assumed): as the sequence (P01375 77-233 limits assumed) above, with L37V, R44T, T72N, R138L counted along it

recombinant human TNFα [6] = target: T1, recombinant human TNFα; assay: cell-based or functional assay
recombinant human TNFβ = target: B1; assay: competition ELISA, coated scFv, biotinylated TNFα, unlabeled TNFβ or TNFα as competitor
Description: as §1

Rhesus monkey TNFα [7] = target: T2, Rhesus monkey TNFα; assay: SPR (MASS-1), TNFα immobilised by amine coupling, scFv injected 45 to 1.4 nM
Description: as §2

[8] = target: T3, recombinant Cynomolgus monkey TNFα; assay: as above
Description: as §2

Rhesus monkey TNFα [9] = target: T2, Rhesus monkey TNFα; assay: SPR, TNFα immobilised, scFv injected
recombinant human TNFα [10] = target: T1, recombinant human TNFα; assay: inhibition ELISA: biotinylated human TNFα pre-incubated with the scFv, binding to coated TNFRII-Fc detected with streptavidin-HRP [panel 17-22-B03-sc12]
Description: as §3

recombinant human TNFα [11] = target: T1, recombinant human TNFα; assay: inhibition ELISA: biotinylated human TNFα pre-incubated with the scFv, binding to coated TNFRI-Fc detected with streptavidin-HRP [panel 17-22-B03-sc12]
Description: as §3

Row | Binder | Kd (recombinant human TNFα [1]) [nM] | koff (recombinant human TNFα [1]) [s⁻¹] | kon (recombinant human TNFα [1]) [M⁻¹ s⁻¹] | IC50 (recombinant human TNFα [2]) [µg/mL] | rel. IC50 (IC50 Infliximab/IC50 scFv), blocking of TNF-TNFRI interaction (recombinant human TNFα [2]) [ratio] | rel. IC90 (IC90 Infliximab/IC90 scFv), blocking of TNF-TNFRI interaction (recombinant human TNFα [2]) [ratio] | IC50 (recombinant human TNFα [3]) [µg/mL] | rel. IC50 (IC50 Infliximab/IC50 scFv), blocking of TNF-TNFRII interaction (recombinant human TNFα [3]) [ratio] | rel. IC90 (IC90 Infliximab/IC90 scFv), blocking of TNF-TNFRII interaction (recombinant human TNFα [3]) [ratio] | Species-specificity IC50 [ng/mL], L929 assay, rhesus TNFα (Rhesus monkey TNFα [4]) [ng/mL] | Species-specificity IC50 [ng/mL], L929 assay, cyno TNFα [5] [ng/mL] | Potency (L929 assay), rel. IC50 (IC50 Infliximab/IC50 scFv, ng/mL) (recombinant human TNFα [6]) [ratio] | Potency (L929 assay), rel. IC90 (IC90 Infliximab/IC90 scFv, ng/mL) (recombinant human TNFα [6]) [ratio] | Species-specificity IC50 [ng/mL], L929 assay, human TNFα (recombinant human TNFα [6]) [ng/mL] | Target selectivity, rel. IC50 of TNFβ vs TNFα (recombinant human TNFβ) [fold] | Kd (Rhesus monkey TNFα [7]) [nM] | koff (Rhesus monkey TNFα [7]) [s⁻¹] | kon (Rhesus monkey TNFα [7]) [M⁻¹ s⁻¹] | Kd [8] [nM] | koff [8] [s⁻¹] | also measured
1 | B1 |  |  |  |  |  |  |  |  |  |  |  |  |  |  |  |  |  |  |  |  | IC50 (17-22-B03-sc02): > 1250 µg/mL; IC50 (17-22-B03-sc12): > 1250 µg/mL; IC50 (17-22-B03-sc08): > 1250 µg/mL
2 | B2 | 0.061 | 6.8e-05 | 1.1e+06 | 0.0212 | 2.3 | 2.5 | 0.0353 | 2.8 | 2.7 | 0.4 | 0.5 | 26 | 26.6 | 0.4 | > 10000 |  |  |  |  |  | 
3 | B3 | 0.052 | 5.9e-05 | 1.1e+06 | 0.0334 | 1.5 | 1.4 | 0.0711 | 1.4 | 1.8 | 0.3 | 0.6 | 23.7 | 29.4 | 0.5 | > 10000 | 0.15 | 0.00011 | 710000 | 0.05 | 6e-05 | kon [8]: 1.2e+06 M⁻¹ s⁻¹; fold difference in affinity against human TNFα (Rhesus monkey TNFα [9]): ~3 fold
4 | B4 | 0.048 | 4e-05 | 830000 |  | 1.5 |  |  | 2.1 |  | 0.9 | 0.8 | 13.4 | 11.7 | 0.6 | > 10000 | 0.24 | 0.0002 | 830000 | 0.07 | 5.2e-05 | kon [8]: 750000 M⁻¹ s⁻¹; IC50 (read off the curve) (recombinant human TNFα [10]): ~0.03 µg/mL; IC50 (read off the curve) (recombinant human TNFα [11]): ~0.03 µg/mL
